Results taken from IntAct's records for PubMed 14675752.

B1: Clathrin interactor 1 (Homo sapiens), Q14677 (parent)
chain: MLNMWKVRELVDKATNVVMNYSEIESKVREATNDDPWGPSGQLMGEIAKATFMYEQFPELMNMLWSRMLKDNKKNWRRVYKSLLLLAYLIRNGSERVVTSAREHIYDLRSLENYHFVDEHGKDQGINIRQKVKELVEFAQDDDRLREERKKAKKNKDKYVGVSSDSVGGFRYSERYDPEPKSKWDEEWDKNKSAFPFSDKLGELSDKIGSTIDDTISKFRRKDREDSPERCSDSDEEKKARRGRSPKGEFKDEEETVTTKHIHITQATETTTTRHKRTANPSKTIDLGAAAHYTGDKASPDQNASTHTPQSSVKTSVPSSKSSGDLVDLFDGTSQSTGGSADLFGGFADFGSAAASGSFPSQVTATSGNGDFGDWSAFNQAPSGPVASSGEFFGSASQPAVELVSGSQSALGPPPAASNSSDLFDLMGSSQATMTSSQSMNFSMMSTNTVGLGLPMSRSQNTDMVQKSVSKTLPSTWSDPSVNISLDNLLPGMQPSKPQQPSLNTMIQQQNMQQPMNVMTQSFGAVNLSSPSNMLPVRPQTNALIGGPMPMSMPNVMTGTMGMAPLGNTPMMNQSMMGMNMNIGMSAAGMGLTGTMGMGMPNIAMTSGTVQPKQDAFANFANFSK

Variants of: B1
Details: with ap1g1_mouse Ap1g1, P22892
ap1g1_mouse Ap1g1, P22892, sequence (P22892 whole entry): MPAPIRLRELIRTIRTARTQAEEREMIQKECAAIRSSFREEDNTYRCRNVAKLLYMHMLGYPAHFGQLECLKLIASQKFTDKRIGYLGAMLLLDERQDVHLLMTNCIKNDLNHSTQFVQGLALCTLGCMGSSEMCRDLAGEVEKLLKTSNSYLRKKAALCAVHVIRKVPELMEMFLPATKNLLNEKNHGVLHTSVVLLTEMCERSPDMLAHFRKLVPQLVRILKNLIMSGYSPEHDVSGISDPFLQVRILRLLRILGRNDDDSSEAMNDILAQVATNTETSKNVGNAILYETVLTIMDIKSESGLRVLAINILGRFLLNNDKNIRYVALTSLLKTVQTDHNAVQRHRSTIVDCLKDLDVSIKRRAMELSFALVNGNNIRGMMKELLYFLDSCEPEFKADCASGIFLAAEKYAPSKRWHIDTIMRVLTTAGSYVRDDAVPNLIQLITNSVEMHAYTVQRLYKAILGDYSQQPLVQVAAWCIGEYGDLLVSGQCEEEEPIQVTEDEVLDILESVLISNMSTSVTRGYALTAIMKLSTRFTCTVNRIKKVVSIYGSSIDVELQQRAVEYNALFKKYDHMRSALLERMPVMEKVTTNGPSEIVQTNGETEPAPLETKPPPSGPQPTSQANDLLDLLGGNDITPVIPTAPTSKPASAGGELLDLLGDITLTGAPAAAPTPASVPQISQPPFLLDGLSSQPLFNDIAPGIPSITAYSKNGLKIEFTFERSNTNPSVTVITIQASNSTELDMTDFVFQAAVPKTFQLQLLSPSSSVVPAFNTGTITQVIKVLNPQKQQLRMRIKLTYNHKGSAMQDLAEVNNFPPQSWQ
In the case of D374A, the “effect of a mutation on the interaction” value is reported as “decreasing interaction”.

Variants of: B1
Details: with ap1g1_mouse Ap1g1, P22892
Remark: another data set of the same source
W375A was tested, and the “effect of a mutation on the interaction” value was “decreasing interaction”.

Variants of: B1
Details: with ap1g1_mouse Ap1g1, P22892
Remark: another data set of the same source
For G373R, the “effect of a mutation on the interaction” value was “decreasing interaction”.

Variants of: B1
Details: with ap1g1_mouse Ap1g1, P22892
Remark: another data set of the same source
F372A was tested, and the “effect of a mutation on the interaction” value was “decreasing interaction”.

Variants of: B1
Details: with ap1g1_mouse Ap1g1, P22892
Remark: another data set of the same source
F378A was tested, and the “effect of a mutation on the interaction” value was “decreasing interaction”.

Variants of: B1
Details: with ap1g1_mouse Ap1g1, P22892
Remark: another data set of the same source
With D371A the “effect of a mutation on the interaction” value was “decreasing interaction”.
